Measurements published in patent publication US20250333534A1 (HEFEI TG IMMUNOPHARMA, published 2025).
Numbering of substitutions follows the chain as printed.

T1: Human CD155 protein (Human CD155), expressed on cells (human, UniProt P15151 21-417)
T1 construct: also called CHO-K1-human CD155; CHO-K1-CD155
T1 sequence: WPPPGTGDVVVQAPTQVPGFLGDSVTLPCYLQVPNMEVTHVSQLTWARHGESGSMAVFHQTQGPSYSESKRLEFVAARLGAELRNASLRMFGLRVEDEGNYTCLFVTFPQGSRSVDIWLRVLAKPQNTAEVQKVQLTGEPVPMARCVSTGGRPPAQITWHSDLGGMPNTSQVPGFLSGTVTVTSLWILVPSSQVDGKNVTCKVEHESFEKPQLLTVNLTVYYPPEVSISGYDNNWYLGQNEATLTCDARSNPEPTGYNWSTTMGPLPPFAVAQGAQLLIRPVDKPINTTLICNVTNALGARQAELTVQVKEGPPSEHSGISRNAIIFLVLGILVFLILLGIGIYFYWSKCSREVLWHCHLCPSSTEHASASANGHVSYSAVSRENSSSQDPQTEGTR

B1: human-mouse chimeric antibody mutgi1005-hIgG4 (antibody)
heavy: not shown
light: QAVVTQESALTTSPGETVTLTCRSSTGAVTTSNYANWVQEKPDHLFTGLIGGTNNRAPGVPARFSGSLIGDKAALTITGAQTEDEAIYFCALWYSNHFVFGGGTKLTVLGQPKAAPSVTLFPPSSEELQANKATLVCLISDFYPGAVTVAWKADSSPVKAGVETTTPSKQSNNKYAASSYLSLTPEQWKSHRSYSCQVTHEGSTVEKTVAPTECS
notes: Murine variable regions fused with wild-type human IgG4 and lambda constant regions; also called mutgi1005-hlgG4; chimeric CD155 antibody
B2: human-mouse chimeric antibody mutgi1005-hIgG1 (antibody)
heavy: not shown
light: B1 light
notes: Murine variable regions fused with wild-type human IgG1 and lambda constant regions; also called chimeric CD155 antibody
B3: affinity-matured humanized antibody V21 (tgi1005 V21-hIgG1/4) (antibody, V domains shown)
VH: QVQLVQSGAEVKKPGASVKVSCKASGYTFTSSYISWVRQAPGQGLEWIAWIYAGTGDTNYNQKFTGRVTMTTDTSTSTAYMELRSLRSDDTAVYYCARHGYTGRGWYFAVWGQGTTVTVSS
VL: QAVVTQEPSLTVSPGGTVTLTCRSSTGAVTTSNYANWVQQKPGQAFRGLIGGTNNRAPGVPARFSGSLLGDKAALTLSGAQPEDEAEYYCILWYSNHFVFGGGTKLTVL
B4: affinity-matured humanized antibody V40 (tgi1005 V40-hIgG1/4) (antibody, V domains shown)
VH: B3 VH with Y101M
VL: B3 VL with Y34L, G52H, H97K
B5: affinity-matured humanized antibody V28 (tgi1005 V28-hIgG1/4/1LALA) (antibody, V domains shown)
VH: B3 VH with Y101L, G105H
VL: B3 VL with Y34I, A57G, H97K
B6: affinity-matured humanized antibody V20 (tgi1005 V20-hIgG1/4/1LALA) (antibody, V domains shown)
VH: B3 VH
VL: B3 VL with Y34L, G52H, I91A, H97K
B7: murine CD155 antibody (mutgi1005) (antibody, mouse IgG2a)
heavy: QVQMQQSGAELVKPGASVKLSCKTSGFTFSSSYISWLKQKPGQSLEWIAWIYAGTGDTNYNQKFTGKAQVTVDTSSSTAYMQFSSLTTEDSAIYYCVRHGSTGRGWYFAVWGAGTTVTVSSAKTTAPSVYPLAPVCGDTTGSSVTLGCLVKGYFPEPVTLTWNSGSLSSGVHTFPAVLQSDLYTLSSSVTVTSSTWPSQSITCNVAHPASSTKVDKKIEPRGPTIKPCPPCKCPAPNLLGGPSVFIFPPKIKDVLMISLSPIVTCVVVDVSEDDPDVQISWFVNNVEVHTAQTQTHREDYNSTLRVVSALPIQHQDWMSGKEFKCKVNNKDLPAPIERTISKPKGSVRAPQVYVLPPPEEEMTKKQVTLTCMVTDFMPEDIYVEWTNNGKTELNYKNTEPVLDSDGSYFMYSKLRVEKKNWVERNSYSCSVVHEGLHNHHTTKSFSRTPGK
light: QAVVTQESALTTSPGETVTLTCRSSTGAVTTSNYANWVQEKPDHLFTGLIGGTNNRAPGVPARFSGSLIGDKAALTITGAQTEDEAIYFCALWYSNHFVFGGGTKLTVLQPKSSPSVTLFPPSSEELETNKATLVCTITDFYPGVVTVDWKVDGTPVTQGMETTQPSKQSNNKYMASSYLTLTARAWERHSSYSCQVTHEGHTVEKSLSRADCS
notes: also called murine monoclonal antibody; murine antibody

target: T1, Human CD155 protein (Human CD155), …; test: flow cytometry on CHO-K1-human CD155 cells

Binding result, binds:
B1
B2
B3
B4
B5
B6
B7
